In patent US20260250421A1 (BIOCYTOGEN PHARMACEUTICALS BEIJING, published 2026):
Changes are numbered by the printed parent chain. Blank lines part the entries; values can stand above or below the binder they belong to.

Experiments:
[1] = molecular target: T1, human PTK7 on human cancer cell lines (human, UniProt Q13308 31-1070); assay: flow cytometry, NCI-H226 cells, Ab 5 ug/mL
T1 construct: Endogenous PTK7 of human tumour cell lines; also called PTK7 on A-431, NCI-H520, NCI-N87, SK-OV-3, BT-20, HCC1954, NCI-H226, NCI-H358, HCT116, PC-3, NCI-H292, NCI-H1975 cells
T1 sequence: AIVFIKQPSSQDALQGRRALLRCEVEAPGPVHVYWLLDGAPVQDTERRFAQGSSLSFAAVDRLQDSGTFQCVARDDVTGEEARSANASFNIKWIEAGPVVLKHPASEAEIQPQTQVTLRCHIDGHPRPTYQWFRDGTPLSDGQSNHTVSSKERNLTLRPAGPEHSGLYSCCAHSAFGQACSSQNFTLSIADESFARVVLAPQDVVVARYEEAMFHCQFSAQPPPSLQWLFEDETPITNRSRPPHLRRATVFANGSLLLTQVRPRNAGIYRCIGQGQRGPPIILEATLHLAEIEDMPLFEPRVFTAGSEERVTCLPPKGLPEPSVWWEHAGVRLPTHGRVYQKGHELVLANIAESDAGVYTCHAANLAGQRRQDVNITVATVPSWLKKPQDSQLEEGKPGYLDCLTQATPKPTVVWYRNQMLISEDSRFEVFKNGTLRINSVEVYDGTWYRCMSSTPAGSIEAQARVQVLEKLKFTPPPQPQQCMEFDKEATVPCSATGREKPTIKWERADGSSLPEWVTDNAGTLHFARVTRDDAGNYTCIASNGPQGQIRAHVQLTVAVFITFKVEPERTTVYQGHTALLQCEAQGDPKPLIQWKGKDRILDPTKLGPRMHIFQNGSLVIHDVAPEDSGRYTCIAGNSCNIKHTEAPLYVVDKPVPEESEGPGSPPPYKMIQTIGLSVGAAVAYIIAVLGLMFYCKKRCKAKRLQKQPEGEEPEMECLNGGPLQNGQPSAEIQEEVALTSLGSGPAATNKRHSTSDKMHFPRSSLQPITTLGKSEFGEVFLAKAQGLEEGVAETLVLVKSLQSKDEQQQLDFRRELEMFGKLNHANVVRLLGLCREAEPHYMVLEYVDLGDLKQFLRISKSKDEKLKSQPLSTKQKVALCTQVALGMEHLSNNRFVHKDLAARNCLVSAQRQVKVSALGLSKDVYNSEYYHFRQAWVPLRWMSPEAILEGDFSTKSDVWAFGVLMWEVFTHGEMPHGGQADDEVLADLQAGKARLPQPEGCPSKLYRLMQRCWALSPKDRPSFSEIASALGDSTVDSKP
Experimental: (§1) The binding activity of anti-PTK7 antibodies to cancer cell lines was verified by flow cytometry. […] Purified anti-PTK7 antibody with a concentration of 5 μg/mL was added to each well and was incubated at 4° C. for 30 minutes. […] The cells were collected, and the mean fluorescence intensity (MFI) was determined. Human IgG1 was used as ISO control.

[2] = molecular target: T2, dog PTK7 on dog cancer cell lines (dog, UniProt A0A8I3N574 31-1070); assay: flow cytometry, CMT-U27 dog cells, Ab 5 ug/mL
T2 construct: whole, on cells; Endogenous protein on dog tumour cell lines; also called PTK7 on CMT-U27 and D-17 cells; dog cancer cells
T2 sequence: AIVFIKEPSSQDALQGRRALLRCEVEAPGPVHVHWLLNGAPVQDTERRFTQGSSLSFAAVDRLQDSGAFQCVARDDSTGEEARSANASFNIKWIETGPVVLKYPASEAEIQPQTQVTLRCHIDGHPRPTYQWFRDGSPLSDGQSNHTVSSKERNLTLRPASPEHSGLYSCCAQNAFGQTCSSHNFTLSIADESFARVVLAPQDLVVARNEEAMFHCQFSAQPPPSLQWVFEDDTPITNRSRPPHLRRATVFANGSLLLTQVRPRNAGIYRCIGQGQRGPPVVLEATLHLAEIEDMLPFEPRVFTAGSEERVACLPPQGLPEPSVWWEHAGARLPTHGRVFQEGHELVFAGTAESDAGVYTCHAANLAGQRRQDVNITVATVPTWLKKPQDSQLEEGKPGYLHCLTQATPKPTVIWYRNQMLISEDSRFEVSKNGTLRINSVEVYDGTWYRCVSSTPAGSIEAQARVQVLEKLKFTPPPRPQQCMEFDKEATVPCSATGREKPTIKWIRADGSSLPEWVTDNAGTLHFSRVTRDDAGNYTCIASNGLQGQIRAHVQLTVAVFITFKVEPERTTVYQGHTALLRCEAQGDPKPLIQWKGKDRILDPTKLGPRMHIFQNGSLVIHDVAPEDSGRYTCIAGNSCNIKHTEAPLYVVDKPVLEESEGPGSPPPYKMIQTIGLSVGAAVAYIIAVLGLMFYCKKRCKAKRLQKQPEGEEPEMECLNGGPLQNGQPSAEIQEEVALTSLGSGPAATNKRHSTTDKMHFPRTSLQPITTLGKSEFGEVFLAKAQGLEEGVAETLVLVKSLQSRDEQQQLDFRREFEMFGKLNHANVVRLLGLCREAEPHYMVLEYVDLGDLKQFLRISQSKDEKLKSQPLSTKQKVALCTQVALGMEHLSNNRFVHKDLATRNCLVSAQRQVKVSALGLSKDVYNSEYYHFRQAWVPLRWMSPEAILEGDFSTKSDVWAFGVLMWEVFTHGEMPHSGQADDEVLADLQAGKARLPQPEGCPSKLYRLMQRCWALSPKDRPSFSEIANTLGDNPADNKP
Experimental: as §1

[3] = molecular target: T1, human PTK7 on human cancer cell lines; assay: flow cytometry, NCI-N87 cells, Ab 5 ug/mL
Experimental: as §1

[4] = molecular target: T1, human PTK7 on human cancer cell lines; assay: flow cytometry, A-431 cells, Ab 5 ug/mL
Experimental: as §1

[5] = molecular target: T1, human PTK7 on human cancer cell lines; assay: flow cytometry, NCI-H520 cells, Ab 5 ug/mL
Experimental: as §1

MFI [1]: 167000
MFI [2]: 37400
MFI [3]: 139000
MFI [4]: 186000
MFI [5]: 282000
B1: 3C4 (antibody, V domains shown)
VH: QVQLEQSRAEVKKPGESLRISCKGSGYSFTSYWISWVRQMPGKGLEWMGRIDPSDSYTNYNPSFQGHVTISADKSISTAYLQWSSLKASDTAMYYCARRDGSYFDFDYWGQGTLVTVSS
VL: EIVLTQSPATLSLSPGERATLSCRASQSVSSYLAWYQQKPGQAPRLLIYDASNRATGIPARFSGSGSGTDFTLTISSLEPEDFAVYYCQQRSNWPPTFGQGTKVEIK
notes: also called anti-PTK7 antibody 3C4

MFI [1]: 193000
MFI [2]: 94500
MFI [3]: 180000
MFI [4]: 289000
MFI [5]: 310000
B2: 3E6 (antibody, V domains shown)
VH: B1 VH with E5V, Q6E, R8G, K23R, N59K, N61S, S102D
VL: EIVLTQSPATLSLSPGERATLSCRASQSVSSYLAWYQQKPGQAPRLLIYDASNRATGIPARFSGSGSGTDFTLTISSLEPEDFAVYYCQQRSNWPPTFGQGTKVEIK
notes: also called anti-PTK7 antibody 3E6

MFI [1]: 152000
MFI [2]: 75600
MFI [3]: 158000
MFI [4]: 247000
MFI [5]: 296000
B3: 1A11 (antibody, V domains shown)
VH: QVQLVQSGPGLVKPSETLSLTCTVSGGSINSYYWNWIRQPPGKGLEWIGYIYYSGSTNYNPSLKSRVTISVDTSKNQFSLKLSSVTAADTAVYYCARDPHDYIRGHFDLWGRGTLFTVSS
VL: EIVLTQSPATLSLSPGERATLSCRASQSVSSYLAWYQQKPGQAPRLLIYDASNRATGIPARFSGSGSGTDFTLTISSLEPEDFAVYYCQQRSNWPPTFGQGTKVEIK
notes: also called anti-PTK7 antibody 1A11

MFI [1]: 80200
MFI [2]: 56700
MFI [3]: 75700
MFI [4]: 91100
MFI [5]: 190000
B4: 1A7 (antibody, human IgG1, V domains shown)
VH: QVQLVESGGGVVQPGRSLRLSCAASGFTFSNYGMHWVRQAPGKGLEWVAVIYYDGSNKFYADSVKGRFTISRDNSKNTLYLQMSSLRAEDTAVYYCARDVAPPGSRAEYFHHWGQGTLVTVSS
VL: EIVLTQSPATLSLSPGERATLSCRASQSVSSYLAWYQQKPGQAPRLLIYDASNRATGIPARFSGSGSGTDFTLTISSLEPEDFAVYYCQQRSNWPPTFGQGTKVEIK
notes: also called anti-PTK7 antibody 1A7

MFI [1]: 141000
MFI [2]: 76400
MFI [3]: 152000
MFI [4]: 173000
MFI [5]: 283000
B5: 2A5 (antibody, V domains shown)
VH: B4 VH with E6Q, Y52W, S56R, F59Y, S84N, P103A, H111Q, H112N
VL: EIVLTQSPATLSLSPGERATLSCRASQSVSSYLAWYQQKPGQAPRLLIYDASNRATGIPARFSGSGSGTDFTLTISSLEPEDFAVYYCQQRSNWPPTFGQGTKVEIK
notes: also called anti-PTK7 antibody 2A5

MFI [1]: 80900
MFI [2]: 81300
MFI [3]: 69400
MFI [4]: 106000
MFI [5]: 199000
B6: 2F5 (antibody, V domains shown)
VH: B4 VH with A23V, V50I, F59Y, S84N, P102A, P103A, F110L
VL: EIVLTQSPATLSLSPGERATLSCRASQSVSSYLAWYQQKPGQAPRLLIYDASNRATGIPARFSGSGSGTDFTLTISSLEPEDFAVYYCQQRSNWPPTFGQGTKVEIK
notes: also called anti-PTK7 antibody 2F5

MFI [1]: 180000
MFI [2]: 72200
MFI [3]: 217000
MFI [4]: 295000
MFI [5]: 312000
B7: 2D11 (antibody, V domains shown)
VH: B4 VH with N31S, Y52F, F59Y, S84N, A92S, P102A, H111Q, H112N
VL: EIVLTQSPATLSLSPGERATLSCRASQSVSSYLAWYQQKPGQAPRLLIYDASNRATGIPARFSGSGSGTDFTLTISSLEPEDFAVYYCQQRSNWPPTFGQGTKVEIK
notes: also called anti-PTK7 antibody 2D11

MFI [1]: 94900
MFI [2]: 45800
MFI [3]: 108000
MFI [4]: 156000
MFI [5]: 216000
B8: 1F2 (antibody, V domains shown)
VH: QVQLVQSGGGLVQPGGSLRLSCAASGFTFSRYEMNWVRQAPGKGLEWVSYINSIGSAINYADSVKGRFTISRDNAKNSLYLQMRSLRAEDTAVYYCVREDNWNPGYWGQGTLVTVSS
VL: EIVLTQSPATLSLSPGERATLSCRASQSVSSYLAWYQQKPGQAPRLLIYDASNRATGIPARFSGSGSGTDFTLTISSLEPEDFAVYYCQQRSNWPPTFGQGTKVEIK
notes: also called anti-PTK7 antibody 1F2
